“Also recorded” adds a separate entry of the source.
Key:
Huh7 cells [1] = assay: qRT-PCR of BMP/SMAD target genes in Huh7 cells treated with ERFE; type: cell-based; conditions: Huh7, mouse ERFE 10 μg/ml vs vehicle
Procedure: (§1) (b) Gene expression microarray: Microarray analysis of Huh7 cells treated with mouse or human erythroferrone was carried out to test the activity of erythroferrone on the BMP/SMAD signalling pathway. Generally cell treatments were carried out according to the following protocol: Huh7 and HepG2 were cultured in Dulbecco's Modified Eagle's Medium—High Glucose (Sigma), supplemented with 10% Fetal Bovine Serum (Sigma), 1% Penicillin-Streptomycin (Sigma) and 1% L-Glutamine (Sigma), unless otherwise indicated. Cells were plated 24 h before treatments in 24-well (gene expression analysis) or 12-well (protein analysis) cell culture plates. At the time of treatment, cells were washed with PBS and fresh media was added.
(§2) (c) RNA isolation, cDNA synthesis and qRT-PCR: Suppression of several BMP-target genes: HAMP, ID1, ID3, SMAD6 and SMAD7 was further confirmed by qRT-PCR. Cells were lysed and RNA was isolated using the RNeasy Plus kit (Qiagen), followed by RNA quantification and quality assessment using Nanodrop (Thermo Fisher). cDNA was synthesized using the High Capacity RNA-to-cDNA kit (Applied Biosystems). Gene expression was assessed using quantitative real-time PCR with Taqman Gene Expression Master Mix and inventoried Taqman Gene expression assays (Applied Biosystems) specific for the genes of interest according to the manufacturer's instructions.

[2] = test system: SMAD1/5/8 phosphorylation in Huh7 cells; assay: Western blot of SMAD1/5/8 phosphorylation in Huh7 cells; type: cell-based
Procedure: (d) ERFE effects on BMP/SMAD signalling measured by SMAD 1/5/8 phosphorylation: To confirm the suppression of BMP/SMAD signalling, we analysed phosphorylation of SMAD1/5/8, required to transduce the signal leading to HAMP upregulation. Analysis was carried out by Western blot according to the following methodology: Cells were lysed at 4° C. using RIPA buffer (Thermo Scientific) containing protease/phosphatase inhibitor (Cell Signalling). Lysates were denatured at 95° C. and separated on a 10% SDS polyacrylamide gel (Bio-Rad), following the manufacturer's instruction. Protein sizes were estimated by using the Novex Sharp Pre-Stained Protein Ladder (life technologies). Protein was transferred to a nitrocellulose membrane, then blocked with milk/TBS for 1 h. Antibodies used were anti-P-SMAD 1/5 (S463s/465)/9(S465/467) (Cell signalling 13820S 1:500), anti-Smad1 (Cell Signalling 6944S 1:500), anti-β-actin-peroxidase (Sigma A3854 1:10 000), and Anti-rabbit IgG HRP conjugated (RnD systems HAP008 1:5000). […] In this case Huh7 cells were treated with mouse ERFE (10 μg/ml) or BMP6 and LDN, a small molecule inhibitor of BMPs, (100 nM), alone or in combination, for 30 min and pSMAD/SMAD ratios values were calculated by densitometry. Erythroferrone caused a decrease in SMAD phosphorylation relative to non-treated cells (FIG. 3D).

Huh7 cells [3] = assay: HAMP and ID1 qRT-PCR in Huh7 cells treated with BMPs with or without mouse ERFE; type: cell-based; conditions: 2 nM BMP 2/6, BMP5, BMP6 or BMP7 + 10 μg/ml mouse ERFE, 6 h, serum-free media
Procedure: as §1
as §2, with “instructions. […]” for “instructions.”

HepG2 cells = assay: HAMP and ID1 qRT-PCR in HepG2 cells treated with BMPs with or without mouse ERFE; type: cell-based; conditions: 2 nM BMP 2/6, BMP6 or BMP7 + 10 μg/ml mouse ERFE, 6 h, serum-free media
Procedure: as §1
as §2, with “instructions. […]” for “instructions.”

[4] = test system: BMP-target genes in the liver; assay: Short-term ERFE treatment in WT mice: liver BMP-target genes, serum and liver iron; type: in vivo; conditions: 200 μg i.v., 3 h
Description: (a) Animal studies: Wild-type male C57BL/6 mice were purchased from Harlan Laboratories, UK. Embryos from Fam132b+/− mice on a mixed Sv129/C57BL/6 background were obtained from the Mutant Mouse Regional Resource Center (MMRRC) at UC Davis (strain 66; 12955-Fam132btm1Lex/Mmucd, ID MMRRC:032289-UCD) and backcrossed onto C57BL/6 background using marker-assisted accelerated backcrossing. Heterozygote pairs were mated to generate homozygous animals from which knockout and wild-type colonies were maintained. Animals were housed in individually ventilated cages in the Department of Biomedical Services, University of Oxford, and provided access to normal chow (163 ppm of iron, Special Diets Services 801700) and water ad libitum. All experiments were performed in 9-13 weeks old male mice. For EPO treatments, mice were injected intraperitoneally with 200 IU recombinant human EPO (Bio-Rad) in water or vehicle (water) daily for three consecutive days and culled 24 h after the last EPO injection. For ERFE treatments, mice were injected intravenously with 200 μg of recombinant mouse ERFE or vehicle (saline) and culled 3 h after treatment. Mice were euthanized in increasing CO2 concentrations.
(b) Serum iron analysis: Blood was taken by cardiac puncture immediately after euthanising mice and collected in BD EDTA or SST (serum) Microtainer tubes. Serum was prepared by centrifugation of clotted blood at 8000×g for 3 minutes in BD Microtainer SST tubes (Beckton Dickinson) and used for serum iron quantification using a Abbott Architect c16000 automated analyzer (Abbott Laboratories).
(c) Tissue non-heme iron measurement: Liver tissues were dried for 4 hours at 100° C., weighed and digested in 10% tricholoroacetic acid (Sigma)/30% hydrochloric acid (Sigma) for 20 hours at 65° C. A standard curve was generated using a dilution series of ferric ammonium citrate (Sigma) in the 10% (w/v) trichloroacetic acid/30% hydrochloric acid mixture. Non-heme iron content was determined colorimetrically by measuring absorbance at 535 nm following reaction with chromogen reagent containing 0.1% (w/v) bathophenoldisulphonic acid (Sigma)/0.8% thioglycolic acid (Sigma).
Three hours after the injections, mice were culled and serum and liver iron measured. […] Additionally, three hours after the injections, mice were culled and the liver harvested for analysis of liver gene expression for BMP-target genes.

B1: mouse ERFE: recombinant mouse erythroferrone (SEQ ID NO: 2); monoFC-muErfe is a monomeric FC murine ERFE fusion (protein, listed as Mus musculus)
chain: MASRRPVGARTLLACASLLAAMGLGVPESAEPVGTHARPQPPGAELPAPPANSPPEPIAHAHSVDPRDAWMLFVKQSDKGINSKRRSKARRLKLGLPGPPGPPGPQGPPGPFIPSEVLLKEFQLLLKGAVRQRESHLEHCTRDLPASGSPSRVPAAQELDSQDPGALLALLAATLAQGPRAPRVEAAFHCRLRRDVQVDRRALHELGIYYLPEVEGAFHRGPGLNLTSGQYTAPVAGFYALAATLHVALTEQPRKGPTRPRDRLRLLICIQSLCQHNASLETVMGLENSSELFISVNGVLYLQAGHYSVFLDNASGSSLTVRSGSHFSAILLGL
- expression of BMP-target genes HAMP, ID1, ID3, SMAD6 and SMAD7 (Huh7 cells [1]): Suppression
- expression of FGA (JAK/STAT3 target gene) (Huh7 cells [1]): no changes
- SMAD phosphorylation after BMP6 stimulation ([2]; Huh7, mouse ERFE 10 μg/ml with BMP6, 30 min): blunted the increase
- SMAD 1/5/8 phosphorylation relative to non-treated cells ([2]; Huh7, mouse ERFE 10 μg/ml, 30 min, baseline): decrease
- HAMP and ID1 expression / BMP/SMAD signalling in BMP-treated Huh7 cells (Huh7 cells [3]): suppresses; also recorded: suppression
- HAMP and ID1 expression / BMP/SMAD signalling in BMP-treated HepG2 cells (HepG2 cells): suppresses
- liver iron [4]: not affected
- serum iron [4]: not affected
- serum hepcidin levels ([4]; in comparison to the control): reduced
- liver expression of Hamp and BMP-target genes ([4]; vs inactive control Clip huERFE): significantly reduced

From US20210196823A1, “Methods of Treating Metabolic Disease” (Pfizer Inc., priority 2018, published 2021)
